Test results taken from patent publication US9266923B2, “Compositions and methods for treatment of thrombosis and for prolonging survival of stored platelets” (priority 2010, dated 2016).

Assays:
mouse platelet GPIbα = target: T1, mouse platelet GPIbα (Mus musculus, UniProt O35930); assay: In vivo activity in wild-type mice
T1 construct: endogenous in cells; host or cells: platelets of wild-type mice (in vivo)
T1 sequence (O35930 17-734): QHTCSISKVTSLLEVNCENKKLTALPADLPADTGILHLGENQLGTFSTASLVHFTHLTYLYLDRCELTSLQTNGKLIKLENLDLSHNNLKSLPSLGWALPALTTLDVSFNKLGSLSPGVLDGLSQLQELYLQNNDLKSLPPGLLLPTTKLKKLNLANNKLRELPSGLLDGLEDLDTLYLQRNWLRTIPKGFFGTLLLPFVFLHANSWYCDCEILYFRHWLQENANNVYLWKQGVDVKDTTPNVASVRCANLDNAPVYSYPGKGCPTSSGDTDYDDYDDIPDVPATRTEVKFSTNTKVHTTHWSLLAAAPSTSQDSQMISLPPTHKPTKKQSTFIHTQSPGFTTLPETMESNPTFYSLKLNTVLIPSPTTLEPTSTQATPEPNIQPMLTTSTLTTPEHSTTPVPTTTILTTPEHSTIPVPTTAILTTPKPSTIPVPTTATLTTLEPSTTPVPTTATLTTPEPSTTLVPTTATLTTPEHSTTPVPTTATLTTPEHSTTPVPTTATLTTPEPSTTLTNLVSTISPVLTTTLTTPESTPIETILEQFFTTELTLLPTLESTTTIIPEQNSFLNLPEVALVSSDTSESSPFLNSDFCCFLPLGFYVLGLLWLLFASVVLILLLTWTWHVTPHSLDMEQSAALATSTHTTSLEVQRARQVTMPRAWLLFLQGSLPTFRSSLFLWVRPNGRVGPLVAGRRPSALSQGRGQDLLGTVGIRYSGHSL
T1 sequence (P56400 27-206 partner): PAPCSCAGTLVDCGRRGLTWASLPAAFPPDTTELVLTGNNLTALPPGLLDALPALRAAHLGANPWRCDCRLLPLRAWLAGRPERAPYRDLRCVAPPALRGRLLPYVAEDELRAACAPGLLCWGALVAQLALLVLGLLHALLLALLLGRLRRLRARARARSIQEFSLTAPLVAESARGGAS
T1 sequence (O88186 17-177 partner): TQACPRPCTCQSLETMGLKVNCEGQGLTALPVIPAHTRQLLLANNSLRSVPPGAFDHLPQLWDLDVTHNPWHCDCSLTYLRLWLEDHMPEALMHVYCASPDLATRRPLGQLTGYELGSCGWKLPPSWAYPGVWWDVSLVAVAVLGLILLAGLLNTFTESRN
Source text: (§1) CCP-014 extended tail bleeding time, as measured in Ware et al., Id.

human GPIbα = target: T2, human GPIbα (Homo sapiens, UniProt P07359); assay: In vivo anti-thrombotic activity, tail bleeding time in transgenic mice expressing human GPIbα; parameters: species or system transgenic mouse
T2 construct: mice expressing human GPIbα; expressed in transfected cells; host or cells: platelets of transgenic mice (Ware et al., PNAS 97:2803-08 (2000))
T2 sequence (P07359 17-652, one chain of several): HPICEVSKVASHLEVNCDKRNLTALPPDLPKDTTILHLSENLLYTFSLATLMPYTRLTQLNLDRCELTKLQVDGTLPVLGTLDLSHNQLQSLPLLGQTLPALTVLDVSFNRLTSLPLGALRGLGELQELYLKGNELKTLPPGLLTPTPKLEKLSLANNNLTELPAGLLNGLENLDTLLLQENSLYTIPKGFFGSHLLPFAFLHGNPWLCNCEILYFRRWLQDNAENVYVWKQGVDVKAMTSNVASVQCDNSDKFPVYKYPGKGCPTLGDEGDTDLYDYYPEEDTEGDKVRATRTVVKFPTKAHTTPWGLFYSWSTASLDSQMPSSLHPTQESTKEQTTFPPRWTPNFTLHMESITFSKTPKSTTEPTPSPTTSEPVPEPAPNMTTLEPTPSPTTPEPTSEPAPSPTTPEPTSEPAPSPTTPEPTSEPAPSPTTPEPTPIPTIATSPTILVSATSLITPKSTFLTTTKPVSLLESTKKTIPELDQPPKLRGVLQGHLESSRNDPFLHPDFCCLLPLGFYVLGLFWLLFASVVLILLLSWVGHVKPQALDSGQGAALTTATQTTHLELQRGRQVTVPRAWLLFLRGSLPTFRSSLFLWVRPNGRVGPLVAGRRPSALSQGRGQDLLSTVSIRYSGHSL
Source text: as §1

Q: Which results are given for “Ac-A C T E R M A L H N L C G G-NH2 (SEQ ID NO: 1) or Ac-A C T E R M A L H N L C G G K-NH2 (SEQ ID NO: 2) (Ac-ACTERMALHNLCGGK-NH2; cysteine pairing not given here) [CCP-014]”?
A: activity in vivo (mouse platelet GPIbα): not active; tail bleeding time (human GPIbα; mice expressing human GPIbα, measured as in Ware et al.): extended; activity in vivo (human GPIbα; transgenic mice in which human GPIbα replaces the mouse platelet GPIbα): active
